For experiment [1], the target named is T1, hGITR.mmh (human).
T1 chain: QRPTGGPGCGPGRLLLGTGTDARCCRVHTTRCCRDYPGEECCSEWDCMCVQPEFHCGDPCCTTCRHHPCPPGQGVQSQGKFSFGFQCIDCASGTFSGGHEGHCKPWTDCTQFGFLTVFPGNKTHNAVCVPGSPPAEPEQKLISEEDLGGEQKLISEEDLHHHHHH

In experiment [2] the target is T1, hGITR.mmh.
The target of experiment [3] is T2, human complement component 1q (C1q) (human, UniProt P02745 23-245; P02746 28-253; P02747 29-245).
Experiment [4] has as its target T3, biotinylated human C1q (human, UniProt P02745 23-245; P02746 28-253; P02747 29-245).
Experiment [5] deals with T1, hGITR.mmh.
Experiment [6] deals with T2, human complement component 1q (C1q). The source holds these as a separate data set.
Experiment [7] concerns the target T4, human GITR on Jurkat/hGITR/hCD20 cells (human, UniProt Q9Y5U5 26-241).
T4 sequence (looked up): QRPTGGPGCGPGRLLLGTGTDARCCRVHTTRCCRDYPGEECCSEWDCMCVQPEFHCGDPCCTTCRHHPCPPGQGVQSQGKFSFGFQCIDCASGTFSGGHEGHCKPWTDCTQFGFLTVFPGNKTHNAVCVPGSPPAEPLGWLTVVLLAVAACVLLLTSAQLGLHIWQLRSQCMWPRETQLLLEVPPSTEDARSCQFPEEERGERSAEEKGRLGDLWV

The target in experiment [8] is T3, biotinylated human C1q. The source holds these as a separate data set.
Experiment [9] addresses T5, Protein A of S. aureus (ELISA on S. aureus Newman Δspa as printed) (Staphylococcus aureus).
T5 construct: whole, on cells
In words: ELISA, plate coated with S. aureus Newman Δspa, luminescence.

The target in experiment [10] is T2, human complement component 1q (C1q). This is another data set of the same source.
The target of experiment [11] is T6, IsdB.6×(His) (Staphylococcus aureus, UniProt A6QG30 41-613). In words: SPR (Biacore T200), 25C; bsAb captured, IsdB-6xHis injected.
The target of experiment [12] is T3, biotinylated human C1q.
Experiment [13] has as its target T3, biotinylated human C1q. The source holds these as a separate data set.
In experiment [14] the target is T3, biotinylated human C1q. This is another data set of the same source.
Experiment [15] has as its target T2, human complement component 1q (C1q). In words: SPR (Biacore T200), 37C; bsAb captured via anti-human F(ab')2, hC1q injected. Background: In SPR one partner is held on a chip, and binding of the other changes the refractive index at the surface.
Experiment [16] concerns the target T6, IsdB.6×(His). In words: SPR (Biacore 8k), 25C; IsdB-6xHis captured via anti-His, bsAb injected.
The target in experiment [17] is T3, biotinylated human C1q. This is another data set of the same source.
Experiment [18] addresses T2, human complement component 1q (C1q). In words: SPR (Biacore T200), 25C; bsAb captured via anti-human F(ab')2, hC1q injected.
Experiment [19] has the same target.
Experiment [20] deals with T6, IsdB.6×(His). The experiment in a line: SPR (Biacore T200), 37C; bsAb captured, IsdB-6xHis injected.

The kon is a measure of how fast the partners come together. As a reminder, the Kd is the concentration at which binding is half-saturated. A higher Kd goes with a looser complex. What is called koff is the rate constant with which the complex falls apart. For orientation: EC50 means the concentration that produces a half-maximal response.

“And” between values parts separate entries of the source, which are not always exact repeats. Identical values can stand only once. Like-named read-outs stand apart in the source and are kept apart here.

T2 sequence (P02745 23-245, chain 1 of 3): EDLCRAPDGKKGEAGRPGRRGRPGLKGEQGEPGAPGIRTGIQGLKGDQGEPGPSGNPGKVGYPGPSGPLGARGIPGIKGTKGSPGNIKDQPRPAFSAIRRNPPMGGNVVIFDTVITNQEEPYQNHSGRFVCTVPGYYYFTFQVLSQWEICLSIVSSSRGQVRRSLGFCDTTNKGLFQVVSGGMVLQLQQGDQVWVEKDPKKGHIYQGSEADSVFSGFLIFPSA
T2 sequence (P02746 28-253, chain 2 of 3): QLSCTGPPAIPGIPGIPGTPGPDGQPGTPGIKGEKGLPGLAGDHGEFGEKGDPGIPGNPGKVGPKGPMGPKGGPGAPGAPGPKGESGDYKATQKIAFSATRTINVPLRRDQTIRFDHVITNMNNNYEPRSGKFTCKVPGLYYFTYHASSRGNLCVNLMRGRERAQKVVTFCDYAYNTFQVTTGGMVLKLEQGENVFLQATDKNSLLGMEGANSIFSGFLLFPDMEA
T2 sequence (P02747 29-245, chain 3 of 3): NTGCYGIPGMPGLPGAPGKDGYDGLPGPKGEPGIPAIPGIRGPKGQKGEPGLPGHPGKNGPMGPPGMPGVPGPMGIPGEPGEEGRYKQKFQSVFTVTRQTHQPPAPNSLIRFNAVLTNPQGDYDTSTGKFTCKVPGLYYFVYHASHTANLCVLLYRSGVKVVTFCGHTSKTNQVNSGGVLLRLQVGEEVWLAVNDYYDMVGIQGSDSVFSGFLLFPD
T3 sequence (P02745 23-245, chain 1 of 3): as the sequence (P02745 23-245, chain 1 of 3) above
T3 sequence (P02746 28-253, chain 2 of 3): as the sequence (P02746 28-253, chain 2 of 3) above
T3 sequence (P02747 29-245, chain 3 of 3): as the sequence (P02747 29-245, chain 3 of 3) above

B1: REGN6545, anti-GITR x anti-C1q bispecific antibody (bispecific antibody, V domains shown)
VH 1: QVQLQESGPGLVKPSETLSLTCIVSGGSISGYFWNWIRQPPGKGLEWIGYIYYSGTTIYNPSLKSRFTISLDTSKNQFSLKLTSVTAADTAVYYCARESYNPSPRYFDHWGQGTLVTVSS
VH 2: EVQLVESGGGVVQPGGSLRLSCAASGFSLDDYAMHWVRQTPGKGLEWVSLISGDGSRTSYADSVKGRFTISRDNSKNSLYLKMNSLRTEDTALYYCTKDPHNSNWFDPWGQGTLVTVSS
VL: not shown
On to B1, for which the kon with hGITR.mmh [1] was 330000 M⁻¹ s⁻¹ and 274000 M⁻¹ s⁻¹; in the experiment with hGITR.mmh [2], 1.08e+06 M⁻¹ s⁻¹; in experiment [3], 3.07e+06 M⁻¹ s⁻¹; with biotinylated human C1q [4] it was 198000 M⁻¹ s⁻¹; with hGITR.mmh [5], 693000 M⁻¹ s⁻¹; in experiment [6], 3.34e+06 M⁻¹ s⁻¹. For the same molecule, in the experiment with biotinylated human C1q [8], the kon worked out at 241000 M⁻¹ s⁻¹. For the same molecule, the Kd worked out at 7.38 nM in the experiment with hGITR.mmh [2]; 0.528 nM in experiment [3]; 3330 nM with biotinylated human C1q [4]; 3.3 nM with hGITR.mmh [5]; 1.74 nM in experiment [6]; 1860 nM in the experiment with biotinylated human C1q [8]. Besides, the koff with hGITR.mmh [2] is 0.00795 s⁻¹; in experiment [3], 0.00162 s⁻¹; with biotinylated human C1q [4], 0.658 s⁻¹; with hGITR.mmh [5] it was 0.00229 s⁻¹; in [6] it was 0.00582 s⁻¹; with biotinylated human C1q [8], 0.449 s⁻¹. In experiment [7], this molecule displayed an EC50 of 31 nM.

B2: REGN5551, anti-Protein A x anti-C1q bispecific antibody (bispecific antibody, V domains shown)
VH 1: EVQLVESGGGLVQPGGSLRLSCAASGFTFTSYDMHWVRQATGKGLEWVSNIDPAGNTFYPGSVKGRFTISRENAKKSLYLQMNSLRAGDTAVYYCARNLGNWGYDHWGQGTLVTVSS
VH 2: EVQLVESGGGVVQPGGSLRLSCAASGFSLDDYAMHWVRQTPGKGLEWVSLISGDGSRTSYADSVKGRFTISRDNSKNSLYLKMNSLRTEDTALYYCTKDPHNSNWFDPWGQGTLVTVSS
VL: not shown
notes: also called bsC1q × Protein A; bs hC1q × protein A
As to B2, in experiment [9], the EC50 is 0.148 nM. In experiment [10], this molecule gave a Kd of 1.36 nM, a koff of 0.00488 s⁻¹ and a kon of 3.06e+06 M⁻¹ s⁻¹.

B3: REGN5067, anti-IsdB x anti-C1q bispecific antibody (bispecific antibody, V domains shown)
VH 1: EVQLVESGGGLVQPGRSLRLSCTTSGFTFDDYAMHWVRQVPGQGLEWVAGLSWNSDTIGYADSVKGRFTISRDNAKNSLYLQMKSLKAEDTALYYCTKDFYHSLNNWNYYYFDYWGQGTLVTVSS
VH 2: EVQLVQSGAEVKKPGESLKIFCKGSGYSFINDWIGWVRQMPGKGLEWMGLIFPGDSDTRYSPVFQGHVTISADQSIDTAYLQWNSLKASDTAIYYCAVLRYWHFAIWGRGTLVTVSS
VL: not shown
Regarding B3, the Kd in the experiment with IsdB.6×(His) [11] was 1.7 nM; in the experiment with biotinylated human C1q [13], 2180 nM; in the experiment with biotinylated human C1q [14], 3770 nM; with IsdB.6×(His) [16] it was 3.01 nM; in [19], 2.05 nM; in the experiment with IsdB.6×(His) [20], 3.33 nM. The koff with IsdB.6×(His) [11] worked out at 0.000204 s⁻¹; in the experiment with biotinylated human C1q [12], 0.365 s⁻¹; in experiment [15], 0.0134 s⁻¹; with IsdB.6×(His) [16], 0.000989 s⁻¹; in the experiment with biotinylated human C1q [17], 0.844 s⁻¹; in experiment [18], 0.00435 s⁻¹. Further, the koff in the experiment with IsdB.6×(His) [20] came out at 0.00052 s⁻¹. In addition, the kon with IsdB.6×(His) [11] is 120000 M⁻¹ s⁻¹; in the experiment with biotinylated human C1q [12], 168000 M⁻¹ s⁻¹; in [15], 6.52e+06 M⁻¹ s⁻¹; in the experiment with IsdB.6×(His) [16], 328000 M⁻¹ s⁻¹; with biotinylated human C1q [17], 224000 M⁻¹ s⁻¹; in [18] it was 5.78e+06 M⁻¹ s⁻¹. Besides, in the experiment with IsdB.6×(His) [20], the kon was 156000 M⁻¹ s⁻¹. In addition, the t1/2 with IsdB.6×(His) [11] turned out to be 56.6 min; with biotinylated human C1q [12] it was 0.03 min; in experiment [15], 0.9 min; in the experiment with IsdB.6×(His) [16], 11.7 min; with biotinylated human C1q [17], 0.01 min; in experiment [18], 2.7 min. The t1/2 with IsdB.6×(His) [20] stood at 22.2 min.

B4: REGN6546, anti-GITR x anti-C1q bispecific antibody (bispecific antibody, V domains shown)
VH 1: QVQLQESGPGLVKPSETLSLTCIVSGGSISGYFWNWIRQPPGKGLEWIGYIYYSGTTIYNPSLKSRFTISLDTSKNQFSLKLTSVTAADTAVYYCARESYNPSPRYFDHWGQGTLVTVSS
VH 2: EVQLVQSGAEVKKPGESLKIFCKGSGYSFINDWIGWVRQMPGKGLEWMGLIFPGDSDTRYSPVFQGHVTISADQSIDTAYLQWNSLKASDTAIYYCAVLRYWHFAIWGRGTLVTVSS
VL: not shown
Consider B4, for which the Kd is 7.52 nM and 20.9 nM in the experiment with hGITR.mmh [1]; 16 nM in the experiment with hGITR.mmh [2]; 0.753 nM in [3]; 8540 nM with biotinylated human C1q [4]; 4.61 nM with hGITR.mmh [5]; 4.63 nM in experiment [6]. The affinity with biotinylated human C1q [8], expressed as Kd, was 1880 nM. In addition, the kon with hGITR.mmh [1] is 453000 M⁻¹ s⁻¹ and 543000 M⁻¹ s⁻¹; with hGITR.mmh [2], 1.19e+06 M⁻¹ s⁻¹; in experiment [3] it was 5.43e+06 M⁻¹ s⁻¹; with biotinylated human C1q [4], 80500 M⁻¹ s⁻¹; with hGITR.mmh [5], 673000 M⁻¹ s⁻¹; in [6] it was 4.9e+06 M⁻¹ s⁻¹. In the experiment with biotinylated human C1q [8], the kon was 220000 M⁻¹ s⁻¹. Besides, the koff in the experiment with hGITR.mmh [2] is 0.019 s⁻¹; in experiment [3], 0.00409 s⁻¹; with biotinylated human C1q [4], 0.687 s⁻¹; with hGITR.mmh [5], 0.0031 s⁻¹; in experiment [6], 0.0227 s⁻¹; with biotinylated human C1q [8] it was 0.413 s⁻¹. In experiment [7], the EC50 is 23.5 nM.

Source of the values: US20220153819A1 (Regeneron, published 2022).
